Laboratory results published in patent publication US10413588B2, “Probiotic function of human intelectin” (Wisconsin Alumni Research Foundation, priority 2015, dated 2019).
Several values for one entry are separate records, joined by “and”; a condition that tells them apart may be missing. Equal values may be shown once.

Columns and labels:
[1] = test system: infant male fecal microbiome; assay: Flow cytometry binding to infant fecal microbiome; set-up: species or system human; details: fecal sample, 15 μg/mL intelectin + 10 mM CaCl2
Method: Human fecal samples provide a non-invasive proxy of the intestinal microbiome of a patient. The inventors have isolated the intestinal microbiome from human fecal samples and analyzed it for hIntL-1 binding. The isolated microbiome was fixed using an aqueous solution of 1% formaldehyde. Cells were stained as described elsewhere, using either a solution including calcium ions (100 mM) or one containing the calcium ion chelator EDTA. Microbes were exposed to 20 mM HEPES (pH 7.2), 150 mM NaCl, 10 mM CaCl2, 15 μg/mL Strep-tagged-hIntL-1, 0.1% bovine serum albumin (BSA), 0.05% tween-20, 2 μg/mL StrepMAB Classic conjugated to Oyster 645 (IBA Lifesciences, cat. no.: 2-1555-050). […] Cells are analyzed consecutively on a BD LSRII flow cytometer using identical instrument setting. […]
Humans have two intelectins: hIntL-1 and human intelectin-2 (hIntL-2). […] To compare hIntL-1 and hIntL02, the inventors isolated the intestinal mirobiome from human feces and analyzed it for hIntL-2 binding. […] The samples were processed and analyzed as described above. Cells were analyzed consecutively on a BD LSRII flow cytometer using identical instrument setting. […]

[2] = Mouse intelectin-1 SPR on immobilized carbohydrates; assay type: binding; details: referenced to biotin channel
Description: FIG. 23. Mouse intelectin-1 binding to immobilized carbohydrates. Purified Strep-mIntL-1 binding to immobilized carbohydrates monitored using SPR. […] Data are referenced to the biotin channel.

B1: hIntL-2: human intelectin-2, accession no. Q8WWU7, highly homologous to hIntL-1 (protein, listed as Homo sapiens)
chain: MLSMLRTMTRLCFLLFFSVATSGCSAAAASSLEMLSREFETCAFSFSSLPRSCKEIKERCHSAGDGLYFLRTKNGVVYQTFCDMTSGGGGWTLVASVHENDMRGKCTVGDRWSSQQGNKADYPEGDGNWANYNTFGSAEAATSDDYKNPGYYDIQAKDLGIWHVPNKSPMQHWRNSALLRYRTNTGFLQRLGHNLFGIYQKYPVKYRSGKCWNDNGPAIPVVYDFGDAKKTASYYSPYGQREFVAGFVQFRVFNNERAANALCAGIKVTGCNTEHHCIGGGGFFPQGKPRQCGDFSAFDWDGYGTHVKSSCSREITEAAVLLFYR
fraction of cells of the infant microbiome bound by the intelectin [1]: ~32% and 32.2%

B2: Strep-mIntL-1: purified Strep-tagged mouse intelectin-1 (protein, UniProt O88310 19-298, looked up)
Intelectin-1a: AAEENLDTNRWGNSFFSSLPRSCKEIKQEHTKAQDGLYFLRTKNGVIYQTFCDMTTAGGGWTLVASVHENNMRGKCTVGDRWSSQQGNRADYPEGDGNWANYNTFGSAEAATSDDYKNPGYFDIQAENLGIWHVPNKSPLHNWRKSSLLRYRTFTGFLQHLGHNLFGLYKKYPVKYGEGKCWTDNGPALPVVYDFGDARKTASYYSPSGQREFTAGYVQFRVFNNERAASALCAGVRVTGCNTEHHCIGGGGFFPEGNPVQCGDFASFDWDGYGTHNGYS
modifications: Strep-tag
carbohydrate binding on addition of EDTA [2]: prevents carbohydrate binding
